The values that follow come from patent publication US20120058906A1.

For assay [1], the target named is rHuman P-Cadherin/Fc Chimera, CF (R&D Systems Cat#861-PC) (human) (UniProt P22223). Put plainly: MSD ECL multi-spot plate; Fab 4.375 nM; blank spot 305.
The target is the same in assay [2]. Put plainly: MSD ECL multi-spot plate; Fab 280 nM; blank spot 1691.
Assay [3] has as its target rHuman HGF R/c-MET/Fc Chimera, CF (R&D Systems Cat#358-MT/CF) (human) (UniProt P08581). Put plainly: MSD ECL multi-spot assay, antigen spotted on plate, Fab 0.28 uM; blank spot 1773.
Assay [4] addresses rHuman IGF-1 sR (IGF-1 sR), CF (R&D Systems Cat#391-GR) (human) (UniProt P08069). The assay is described as above.
The target in assay [5] is rHuman Notch-1/Fc Chimera, CF (R&D Systems Cat#3647-TK) (human) (UniProt P46531). The assay is described as above.
The target in assay [6] is rHuman ErbB2/Fc Chimera, CF (R&D Systems Cat#1129-ER) (human) (UniProt P04626). Described as above.
Assay [7] deals with rHuman CD44/Fc Chimera, CF (R&D Systems Cat#3660-CD) (human) (UniProt P16070). The assay is described as above.
The target of assay [8] is rHuman P-Cadherin/Fc Chimera, CF (R&D Systems Cat#861-PC) (human) (UniProt P22223). Put plainly: MSD ECL multi-spot plate; Fab 17.5 nM; blank spot 304.
Assay [9] has the same target. Put plainly: MSD ECL multi-spot plate; Fab 70 nM; blank spot 635.
In assay [10] the target is rHuman HGF R/c-MET/Fc Chimera, CF (R&D Systems Cat#358-MT/CF) (human) (UniProt P08581). Put plainly: MSD ECL multi-spot plate; Fab 57.5 nM; blank spot 954.
For assay [11], the target named is rHuman IGF-1 sR (IGF-1 sR), CF (R&D Systems Cat#391-GR) (human) (UniProt P08069). The assay is described as above.
Assay [12] concerns the target rHuman EGF R/Fc Chimera, CF (R&D Systems Cat#344-ER) (human) (UniProt P00533). The assay is described as above.
In assay [13] the target is rHuman ErbB2/Fc Chimera, CF (R&D Systems Cat#1129-ER) (human) (UniProt P04626). The assay is described as above.
The target of assay [14] is rHuman CD44/Fc Chimera, CF (R&D Systems Cat#3660-CD) (human) (UniProt P16070). Described as above.
Assay [15] has as its target rHuman Erythropoietin R/Fc Chimera, CF (R&D Systems Cat#963-ER) (human) (UniProt P19235). The assay is described as above.
The target in assay [16] is rHuman HGF R/c-MET/Fc Chimera, CF (R&D Systems Cat#358-MT/CF) (human) (UniProt P08581). Put plainly: MSD ECL multi-spot plate; Fab 230 nM; blank spot 1656.
Assay [17] deals with rHuman IGF-1 sR (IGF-1 sR), CF (R&D Systems Cat#391-GR) (human) (UniProt P08069). The description is as above.
Assay [18] deals with rHuman EGF R/Fc Chimera, CF (R&D Systems Cat#344-ER) (human) (UniProt P00533). The assay is described as above.
In assay [19] the target is rHuman ErbB2/Fc Chimera, CF (R&D Systems Cat#1129-ER) (human) (UniProt P04626). The assay is described as above.
The target in assay [20] is rHuman CD44/Fc Chimera, CF (R&D Systems Cat#3660-CD) (human) (UniProt P16070). The assay is described as above.
The target in assay [21] is rHuman Erythropoietin R/Fc Chimera, CF (R&D Systems Cat#963-ER) (human) (UniProt P19235). The assay is described as above.
The target in assay [22] is rHuman HGF R/c-MET/Fc Chimera, CF (R&D Systems Cat#358-MT/CF) (human) (UniProt P08581). Put plainly: MSD ECL multi-spot plate; Fab 14.375 nM; blank spot 738.
The target in assay [23] is rHuman IGF-1 sR (IGF-1 sR), CF (R&D Systems Cat#391-GR) (human) (UniProt P08069). The assay is described as above.
For assay [24], the target named is rHuman EGF R/Fc Chimera, CF (R&D Systems Cat#344-ER) (human) (UniProt P00533). The assay is described as above.
For assay [25], the target named is rHuman ErbB2/Fc Chimera, CF (R&D Systems Cat#1129-ER) (human) (UniProt P04626). Described as above.
In assay [26] the target is rHuman CD44/Fc Chimera, CF (R&D Systems Cat#3660-CD) (human) (UniProt P16070). The description is as above.
Assay [27] concerns the target rHuman Erythropoietin R/Fc Chimera, CF (R&D Systems Cat#963-ER) (human) (UniProt P19235). The description is as above.
In assay [28] the target is rHuman HGF R/c-MET/Fc Chimera, CF (R&D Systems Cat#358-MT/CF) (human) (UniProt P08581). Put plainly: MSD ECL multi-spot plate; Fab 920 nM; blank spot 4082.
The target in assay [29] is rHuman IGF-1 sR (IGF-1 sR), CF (R&D Systems Cat#391-GR) (human) (UniProt P08069). The assay is described as above.
Assay [30] concerns the target rHuman EGF R/Fc Chimera, CF (R&D Systems Cat#344-ER) (human) (UniProt P00533). The assay is described as above.
Assay [31] deals with rHuman ErbB2/Fc Chimera, CF (R&D Systems Cat#1129-ER) (human) (UniProt P04626). The assay is described as above.
The target of assay [32] is rHuman CD44/Fc Chimera, CF (R&D Systems Cat#3660-CD) (human) (UniProt P16070). The assay is described as above.
Assay [33] deals with rHuman Erythropoietin R/Fc Chimera, CF (R&D Systems Cat#963-ER) (human) (UniProt P19235). The description is as above.
Assay [34] concerns the target rHuman EGF R/Fc Chimera, CF (R&D Systems Cat#344-ER) (human) (UniProt P00533). Put plainly: MSD ECL multi-spot assay, antigen spotted on plate, Fab 0.93 uM; blank spot 4760.

Chain of rHuman Erythropoietin R/Fc Chimera, CF (R&D Systems Cat#963-ER) (human) (P19235 25-250, change not shown): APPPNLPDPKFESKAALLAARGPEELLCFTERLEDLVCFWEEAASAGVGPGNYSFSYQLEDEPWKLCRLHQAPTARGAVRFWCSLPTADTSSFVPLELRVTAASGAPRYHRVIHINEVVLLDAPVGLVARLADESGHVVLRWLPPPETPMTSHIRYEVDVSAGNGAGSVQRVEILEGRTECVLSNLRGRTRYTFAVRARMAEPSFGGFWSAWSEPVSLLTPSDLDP

In the case of “Fab VH1-46_IGHD2-15*01_IGHJ2*01 & L12_IGKJ1*01”, the ECL signal is 469 ECL signal in assay [1]; 5400 ECL signal in [2]; 5180 in assay [3]; 4640 in [4]; 5280 in assay [5]; 4310 in assay [6]. In addition, the figures for the ECL signal in [7], in [8] and in assay [9] were 4560, 949 ECL signal and 1820 ECL signal, respectively.
Turning to “Fab VH1-46_IGHD3-10*01_IGHJ4*01 & L12_IGKJ1*01”, the ECL signal in assay [10] was found to be 2300 ECL signal; in assay [11] it was 2830 ECL signal; in [12], 3860 ECL signal; in assay [13] it was 2450 ECL signal; in assay [14], 2310 ECL signal; in assay [15], 4040 ECL signal. For the same substance, the ECL signal in assay [16] was determined as 3930 ECL signal; in assay [17], 4760 ECL signal; in assay [18], 5720 ECL signal; in assay [19], 4080 ECL signal; in [20] it was 3820 ECL signal; in [21] it was 6950 ECL signal. Besides, the ECL signal in [22] came out at 1600 ECL signal; in [23], 1750 ECL signal; in assay [24], 2670 ECL signal; in assay [25] it was 1590 ECL signal; in [26], 1490 ECL signal; in assay [27], 2720 ECL signal. Further, the ECL signal in assay [28] is 10700 ECL signal; in assay [29] it was 10200 ECL signal; in assay [30], 13400 ECL signal; in assay [31], 10900 ECL signal; in assay [32], 9700 ECL signal; in [33], 16400 ECL signal. For the same substance, the ECL signal in assay [34] amounted to 15600.
